This passage reports stoichiometry N (tOE17 per imported cpTatC) and stoichiometry N (tOE17-GS3-His per cpTatC) results from paper PMC3352945.

In one experiment the target is imported cpTatC. Kind of experiment: radioligand binding.
Experiment [1] deals with cpTatC (pea (endogenous in pea thylakoids)). Kind of experiment: pull-down.

Sequence of tOE17-GS3-His (Q41048 whole entry): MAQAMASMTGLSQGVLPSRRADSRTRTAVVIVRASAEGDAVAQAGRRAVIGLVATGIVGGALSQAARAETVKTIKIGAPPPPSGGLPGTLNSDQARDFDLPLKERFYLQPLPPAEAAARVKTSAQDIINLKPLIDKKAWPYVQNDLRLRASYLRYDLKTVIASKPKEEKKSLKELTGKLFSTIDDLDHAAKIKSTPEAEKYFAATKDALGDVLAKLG
Sequence of tOE17 V-20F precursor protein (Q41048 whole entry): as above

The substance “tOE17 V-20F precursor protein (from UniProt Q41048 1-217) (natural protein)” yielded a stoichiometry N (tOE17 per imported cpTatC) with imported cpTatC of 0.92.
Take “tOE17-GS3-His (from UniProt Q41048 1-217) (natural protein)”: the stoichiometry N (tOE17-GS3-His per cpTatC) in experiment [1] is 1.05.
